Like-named read-outs stand apart in the source and are kept apart here.
T1: Nkx2-1 (Rattus norvegicus (rat), UniProt P23441 1-372)
T1 sequence: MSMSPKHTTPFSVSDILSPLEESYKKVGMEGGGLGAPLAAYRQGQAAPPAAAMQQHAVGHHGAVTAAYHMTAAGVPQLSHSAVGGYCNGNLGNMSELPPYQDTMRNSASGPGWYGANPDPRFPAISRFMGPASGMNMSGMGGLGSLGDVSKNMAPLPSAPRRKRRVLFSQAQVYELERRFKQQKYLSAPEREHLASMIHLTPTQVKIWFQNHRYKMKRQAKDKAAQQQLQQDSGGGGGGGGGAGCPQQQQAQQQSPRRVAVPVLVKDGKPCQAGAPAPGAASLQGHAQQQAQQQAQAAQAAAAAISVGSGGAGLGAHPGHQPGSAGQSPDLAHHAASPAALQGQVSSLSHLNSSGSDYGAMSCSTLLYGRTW

B1: oligonucleotide CT (dsDNA)
DNA 1: CTGTCTAAGCTTGAGTGGGCATCA
DNA 2: TGATGCCCACTCAAGCTTAGACAG
B2: oligo B (dsDNA)
DNA 1: GAACCAGGGATTCTTCACACTTCATAGAGCAGCT
DNA 2: AGCTGCTCTATGAAGTGTGAAGAATCCCTGGTTC

Key:
Assay in all cases: EMSA
Pax8b [1] = biological target: T2, Pax8b (Oncorhynchus mykiss (rainbow trout), UniProt W0S4A0 1-303)
Pax8a [2] = biological target: T3, Pax8a (Oncorhynchus mykiss (rainbow trout), UniProt W0S3W1 1-458)
Pax8a [3] = biological target: T3, Pax8a; remark: listed apart in the source
Pax8b [4] = biological target: T2, Pax8b; remark: listed apart in the source
Nkx2-1 = biological target: T1, Nkx2-1

Binder | binding result (Pax8b [1]) | binding result (Pax8a [2]) | binding result (Pax8a [3]) | binding result (Pax8b [4]) | binding result (Nkx2-1)
B1 | binds | binds |  |  | 
B2 |  |  | binds | binds | binds
